Patent US20250262210A1 (TRUSTEES OF COLUMBIA UNIVERSITY IN THE CITY OF NEW YORK, published 2025)
Where a chain is given by its changes, count along the chain named. Blank lines part the entries; values can stand above or below the binder they belong to.

How the values were obtained:
LZTR1 R810W-FLAG = biological target: T1, LZTR1 R810W-FLAG (human, UniProt Q8N653 1-840); assay: IP/MS, LZTR1 R810W-FLAG, U87
T1 construct: Stably expressed in U87 cells by lentivirus; also called LZTR1-FLAG-R810W; LZTR1 RW; not shown: FLAG tag
T1 sequence (looked up): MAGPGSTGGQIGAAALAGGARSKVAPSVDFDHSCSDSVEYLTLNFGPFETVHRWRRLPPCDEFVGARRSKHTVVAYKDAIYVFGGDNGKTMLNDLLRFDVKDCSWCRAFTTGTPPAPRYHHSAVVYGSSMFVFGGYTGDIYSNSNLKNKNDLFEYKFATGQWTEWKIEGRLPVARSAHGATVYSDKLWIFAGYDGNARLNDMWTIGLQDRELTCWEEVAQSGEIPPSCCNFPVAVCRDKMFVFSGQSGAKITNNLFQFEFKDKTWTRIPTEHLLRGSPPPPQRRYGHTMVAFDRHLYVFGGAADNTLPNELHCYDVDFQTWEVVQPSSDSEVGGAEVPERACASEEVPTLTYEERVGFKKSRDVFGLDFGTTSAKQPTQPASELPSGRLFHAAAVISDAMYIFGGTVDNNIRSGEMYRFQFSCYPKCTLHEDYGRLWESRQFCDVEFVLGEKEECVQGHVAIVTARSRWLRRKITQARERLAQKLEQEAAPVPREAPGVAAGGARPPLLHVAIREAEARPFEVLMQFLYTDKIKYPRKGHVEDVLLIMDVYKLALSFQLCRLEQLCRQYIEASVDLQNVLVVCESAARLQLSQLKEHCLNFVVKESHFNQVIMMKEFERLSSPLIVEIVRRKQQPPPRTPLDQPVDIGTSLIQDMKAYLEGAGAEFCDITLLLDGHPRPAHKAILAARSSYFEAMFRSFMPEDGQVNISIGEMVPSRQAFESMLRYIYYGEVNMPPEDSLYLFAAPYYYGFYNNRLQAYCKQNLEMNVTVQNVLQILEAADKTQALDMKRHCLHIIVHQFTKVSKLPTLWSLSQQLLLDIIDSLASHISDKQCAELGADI
Summary of the method: (§1)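 Read-out: spectral counts from LC-MS/MS (Orbitrap Fusion) after MaxQuant identification. Variable modifications were Met oxidation, protein N-terminal acetylation and N/Q deamidation.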

LZTR1-FLAG = biological target: T2, LZTR1-FLAG (human, UniProt Q8N653 1-840); assay: IP/MS, LZTR1 wild type-FLAG, U87
T2 construct: Expressed in HEK 293T, HeLa or U87 cells; used as cell lysate; also called LZTR1 wild type-FLAG; LZTR1 WT; not shown: FLAG tag at the C-terminus
T2 sequence (looked up): T1 sequence (looked up) with W810R
Summary of the method: as §1

binding result (LZTR1 R810W-FLAG): binds | binding result (LZTR1-FLAG): binds
B2: IKBKB (other, human, UniProt O14920 1-756, looked up)
chain: MSWSPSLTTQTCGAWEMKERLGTGGFGNVIRWHNQETGEQIAIKQCRQELSPRNRERWCLEIQIMRRLTHPNVVAARDVPEGMQNLAPNDLPLLAMEYCQGGDLRKYLNQFENCCGLREGAILTLLSDIASALRYLHENRIIHRDLKPENIVLQQGEQRLIHKIIDLGYAKELDQGSLCTSFVGTLQYLAPELLEQQKYTVTVDYWSFGTLAFECITGFRPFLPNWQPVQWHSKVRQKSEVDIVVSEDLNGTVKFSSSLPYPNNLNSVLAERLEKWLQLMLMWHPRQRGTDPTYGPNGCFKALDDILNLKLVHILNMVTGTIHTYPVTEDESLQSLKARIQQDTGIPEEDQELLQEAGLALIPDKPATQCISDGKLNEGHTLDMDLVFLFDNSKITYETQISPRPQPESVSCILQEPKRNLAFFQLRKVWGQVWHSIQTLKEDCNRLQQGQRAAMMNLLRNNSCLSKMKNSMASMSQQLKAKLDFFKTSIQIDLEKYSEQTEFGITSDKLLLAWREMEQAVELCGRENEVKLLVERMMALQTDIVDLQRSPMGRKQGGTLDDLEEQARELYRRLREKPRDQRTEGDSQEMVRLLLQAIQSFEKKVRVIYTQLSKTVVCKQKALELLPKVEEVVSLMNEDEKTVVRLQEKRQKELWNLLKIACSKVRGPVSGSPDSMNASRLSQPGQLMSQPSTASNSLPEPAKKSEELVAEAHNLCTLLENAIQDTVREQDQSFTALDWSWLQTEEEEHSCLEQAS

binding result (LZTR1 R810W-FLAG): binds | binding result (LZTR1-FLAG): binds
B5: IFI16 (other, human, UniProt Q16666 1-785, looked up)
chain: MGKKYKNIVLLKGLEVINDYHFRMVKSLLSNDLKLNLKMREEYDKIQIADLMEEKFRGDAGLGKLIKIFEDIPTLEDLAETLKKEKLKVKGPALSRKRKKEVDATSPAPSTSSTVKTEGAEATPGAQKRKKSTKEKAGPKGSKVSEEQTQPPSPAGAGMSTAMGRSPSPKTSLSAPPNSSSTENPKTVAKCQVTPRRNVLQKRPVIVKVLSTTKPFEYETPEMEKKIMFHATVATQTQFFHVKVLNTSLKEKFNGKKIIIISDYLEYDSLLEVNEESTVSEAGPNQTFEVPNKIINRAKETLKIDILHKQASGNIVYGVFMLHKKTVNQKTTIYEIQDDRGKMDVVGTGQCHNIPCEEGDKLQLFCFRLRKKNQMSKLISEMHSFIQIKKKTNPRNNDPKSMKLPQEQRQLPYPSEASTTFPESHLRTPQMPPTTPSSSFFTKKSEDTISKMNDFMRMQILKEGSHFPGPFMTSIGPAESHPHTPQMPPSTPSSSFLTTKSEDTISKMNDFMRMQILKEGSHFPGPFMTSIGPAESHPHTPQMPPSTPSSSFLTTLKPRLKTEPEEVSIEDSAQSDLKEVMVLNATESFVYEPKEQKKMFHATVATENEVFRVKVFNIDLKEKFTPKKIIAIANYVCRNGFLEVYPFTLVADVNADRNMEIPKGLIRSASVTPKINQLCSQTKGSFVNGVFEVHKKNVRGEFTYYEIQDNTGKMEVVVHGRLTTINCEEGDKLKLTCFELAPKSGNTGELRSVIHSHIKVIKTRKNKKDILNPDSSMETSPDFFF

More lines, now with the values behind:

B1: GMPPA (other, human, UniProt Q96IJ6 1-420, looked up)
chain: MLKAVILIGGPQKGTRFRPLSFEVPKPLFPVAGVPMIQHHIEACAQVPGMQEILLIGFYQPDEPLTQFLEAAQQEFNLPVRYLQEFAPLGTGGGLYHFRDQILAGSPEAFFVLNADVCSDFPLSAMLEAHRRQRHPFLLLGTTANRTQSLNYGCIVENPQTHEVLHYVEKPSTFISDIINCGIYLFSPEALKPLRDVFQRNQQDGQLEDSPGLWPGAGTIRLEQDVFSALAGQGQIYVHLTDGIWSQIKSAGSALYASRLYLSRYQDTHPERLAKHTPGGPWIRGNVYIHPTAKVAPSAVLGPNVSIGKGVTVGEGVRLRESIVLHGATLQEHTCVLHSIVGWGSTVGRWARVEGTPSDPNPNDPRARMDSESLFKDGKLLPAITILGCRVRIPAEVLILNSIVLPHKELSRSFTNQIIL
binding result (LZTR1 R810W-FLAG): binds | binding result (LZTR1-FLAG): binds

B3: GPD2 (other, human, UniProt P43304 43-727, looked up)
chain: ADCISEPVNREPPSREAQLLTLQNTSEFDILVIGGGATGSGCALDAVTRGLKTALVERDDFSSGTSSRSTKLIHGGVRYLQKAIMKLDIEQYRMVKEALHERANLLEIAPHLSAPLPIMLPVYKWWQLPYYWVGIKLYDLVAGSNCLKSSYVLSKSRALEHFPMLQKDKLVGAIVYYDGQHNDARMNLAIALTAARYGAATANYMEVVSLLKKTDPQTGKVRVSGARCKDVLTGQEFDVRAKCVINATGPFTDSVRKMDDKDAAAICQPSAGVHIVMPGYYSPESMGLLDPATSDGRVIFFLPWQKMTIAGTTDTPTDVTHHPIPSEEDINFILNEVRNYLSCDVEVRRGDVLAAWSGIRPLVTDPKSADTQSISRNHVVDISESGLITIAGGKWTTYRSMAEDTINAAVKTHNLKAGPSRTVGLFLQGGKDWSPTLYIRLVQDYGLESEVAQHLAATYGDKAFEVAKMASVTGKRWPIVGVRLVSEFPYIEAEVKYGIKEYACTAVDMISRRTRLAFLNVQAAEEALPRIVELMGRELNWDDYKKQEQLETARKFLYYEMGYKSRSEQLTDRSEISLLPSDIDRYKKRFHKFDADQKGFITIVDVQRVLESINVQMDENTLHEILNEVDLNKNGQVELNEFLQLMSAIQKGRVSGSRLAILMKTAEENLDRRVPIPVDRSCGGL
binding result (LZTR1 R810W-FLAG): binds | binding result (LZTR1-FLAG): binds

B4: GUCY1B1 (other, human, UniProt Q02153 1-619, looked up)
chain: MYGFVNHALELLVIRNYGPEVWEDIKKEAQLDEEGQFLVRIIYDDSKTYDLVAAASKVLNLNAGEILQMFGKMFFVFCQESGYDTILRVLGSNVREFLQNLDALHDHLATIYPGMRAPSFRCTDAEKGKGLILHYYSEREGLQDIVIGIIKTVAQQIHGTEIDMKVIQQRNEECDHTQFLIEEKESKEEDFYEDLDRFEENGTQESRISPYTFCKAFPFHIIFDRDLVVTQCGNAIYRVLPQLQPGNCSLLSVFSLVRPHIDISFHGILSHINTVFVLRSKEGLLDVEKLECEDELTGTEISCLRLKGQMIYLPEADSILFLCSPSVMNLDDLTRRGLYLSDIPLHDATRDLVLLGEQFREEYKLTQELEILTDRLQLTLRALEDEKKKTDTLLYSVLPPSVANELRHKRPVPAKRYDNVTILFSGIVGFNAFCSKHASGEGAMKIVNLLNDLYTRFDTLTDSRKNPFVYKVETVGDKYMTVSGLPEPCIHHARSICHLALDMMEIAGQVQVDGESVQITIGIHTGEVVTGVIGQRMPRYCLFGNTVNLTSRTETTGEKGKINVSEYTYRCLMSPENSDPQFHLEHRGPVSMKGKKEPMQVWFLSRKNTGTEETKQDDD
binding result (LZTR1 R810W-FLAG): binds | binding result (LZTR1-FLAG): binds

B6: IFT57 (other, human, UniProt Q9NWB7 1-429, looked up)
chain: MTAALAVVTTSGLEDGVPRSRGEGTGEVVLERGPGAAYHMFVVMEDLVEKLKLLRYEEEFLRKSNLKAPSRHYFALPTNPGEQFYMFCTLAAWLINKAGRPFEQPQEYDDPNATISNILSELRSFGRTADFPPSKLKSGYGEHVCYVLDCFAEEALKYIGFTWKRPIYPVEELEEESVAEDDAELTLNKVDEEFVEEETDNEENFIDLNVLKAQTYHLDMNETAKQEDILESTTDAAEWSLEVERVLPQLKVTIRTDNKDWRIHVDQMHQHRSGIESALKETKGFLDKLHNEITRTLEKISSREKYINNQLENLVQEYRAAQAQLSEAKERYQQGNGGVTERTRLLSEVMEELEKVKQEMEEKGSSMTDGAPLVKIKQSLTKLKQETVEMDIRIGIVEHTLLQSKLKEKSNMTRNMHATVIPEPATGFY
binding result (LZTR1 R810W-FLAG): binds | binding result (LZTR1-FLAG): binds
